{"source": "IntAct's records for PubMed 30814734", "parents": {"B1": {"name": "BTB/POZ domain-containing protein KCTD16 (Homo sapiens), Q68DU8 (parent)", "chain": "MALSGNCSRYYPREQGSAVPNSFPEVVELNVGGQVYFTRHSTLISIPHSLLWKMFSPKRDTANDLAKDSKGRFFIDRDGFLFRYILDYLRDRQVVLPDHFPEKGRLKREAEYFQLPDLVKLLTPDEIKQSPDEFCHSDFEDASQGSDTRICPPSSLLPADRKWGFITVGYRGSCTLGREGQADAKFRRVPRILVCGRISLAKEVFGETLNESRDPDRAPERYTSRFYLKFKHLERAFDMLSECGFHMVACNSSVTASFINQYTDDKIWSSYTEYVFYREPSRWSPSHCDCCCKNGKGDKEGESGTSCNDLSTSSCDSQSEASSPQETVICGPVTRQTNIQTLDRPIKKGPVQLIQQSEMRRKSDLLRTLTSGSRESNMSSKKKAVKEKLSIEEELEKCIQDFLKIKIPDRFPERKHPWQSELLRKYHL", "partner": "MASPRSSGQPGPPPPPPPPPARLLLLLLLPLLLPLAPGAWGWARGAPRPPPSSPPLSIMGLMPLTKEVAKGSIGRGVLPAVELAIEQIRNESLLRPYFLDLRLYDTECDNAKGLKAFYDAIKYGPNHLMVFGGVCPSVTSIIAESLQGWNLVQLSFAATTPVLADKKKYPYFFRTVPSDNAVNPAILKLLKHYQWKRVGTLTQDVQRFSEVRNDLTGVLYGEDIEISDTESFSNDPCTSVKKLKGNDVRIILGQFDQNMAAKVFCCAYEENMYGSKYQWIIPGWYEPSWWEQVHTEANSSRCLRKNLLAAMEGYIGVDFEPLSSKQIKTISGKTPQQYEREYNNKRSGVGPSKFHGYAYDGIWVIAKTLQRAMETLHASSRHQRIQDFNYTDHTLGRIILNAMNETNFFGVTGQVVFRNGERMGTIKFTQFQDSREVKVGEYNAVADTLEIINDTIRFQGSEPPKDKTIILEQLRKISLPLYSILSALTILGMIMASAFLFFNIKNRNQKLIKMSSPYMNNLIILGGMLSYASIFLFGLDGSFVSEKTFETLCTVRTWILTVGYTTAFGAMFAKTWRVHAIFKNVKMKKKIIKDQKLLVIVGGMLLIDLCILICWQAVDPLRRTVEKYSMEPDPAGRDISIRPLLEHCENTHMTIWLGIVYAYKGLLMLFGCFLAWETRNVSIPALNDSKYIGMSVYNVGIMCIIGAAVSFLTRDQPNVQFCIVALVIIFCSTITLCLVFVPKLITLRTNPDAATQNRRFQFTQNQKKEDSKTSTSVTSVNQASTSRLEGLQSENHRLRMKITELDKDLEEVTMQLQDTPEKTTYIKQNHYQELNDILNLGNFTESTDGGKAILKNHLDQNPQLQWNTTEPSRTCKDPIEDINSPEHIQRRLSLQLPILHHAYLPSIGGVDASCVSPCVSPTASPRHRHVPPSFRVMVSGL"}}, "data": [{"variants_of": "B1", "details": "with gabr2_human GABBR2, O75899", "values": [{"variant": "F80A", "effect of a mutation on the interaction": "disrupting interaction strength"}]}]}
